Data reported in patent US9605064B2, “Methods and compositions for treatment of skin disorders” (AbbVie Biotechnology Ltd, priority 2006, dated 2017).
Marks after values point to notes of the source that are not given here.

Experiments:
[1] = tested on: adult patients with moderate to severe chronic plaque psoriasis; conditions: in vivo
[2] = tested on: patients with moderate to severe psoriasis; test: PASI response, open-label extension (OLE) of REVEAL; type: in vivo, human
Procedure: Laboratory parameters and adverse events were also recorded.
The REVEAL study had two independent primary endpoints. The first endpoint was the proportion of patients achieving 75 percent improvement in skin clearance after 16 weeks. The second endpoint was the proportion of patients who lost adequate response through week 52 after stopping treatment with HUMIRA at week 33. Signs of psoriasis were evaluated using the Psoriasis Area and Severity Index (PASI), among other measures. […] At week 52, the start of the OLE period, patients randomized at week 33, as well as patients originally in the placebo group at week 0, were able to enter the OLE period.

[3] = tested on: patients with moderate to severe chronic plaque psoriasis; test: Adverse events, 120-week open-label extension study; conditions: 40 mg eow; for Hypercholesterolemia / Increased triglycerides: non-fasting
Procedure: Inclusion criteria included: moderate to severe chronic plaque psoriasis: ≧1 year and affected BSA: ≧5%. Exclusion criteria included prior TNF-antagonist therapy.
PASI responses and PGA scores were analyzed as observed. […] Thus, patients whose dosages increased were counted as non-responders from the time of dosage escalation. Adverse events were collected throughout the 120-week period.

[4] = Week 0 of OLE, n = 233, ITT, LOCF, 40 mg eow
[5] = Week 12 of OLE, n = 233, ITT, LOCF, 40 mg eow
[6] = Week 24 of OLE, n = 233, ITT, LOCF, 40 mg eow
[7] = after 12 months of continuous adalimumab dosing, ITT (233 patients)
[8] = after 18 months, ITT (233 patients)

For “Adalimumab: a human anti-TNF mAb, described in U.S. Pat. No. 6,090,382 as D2E7 (HUMIRA, Abbott Laboratories)”, the “Infectious AEs, percentage” value [1] was 28.9‡ %, the “Upper Respiratory Tract Infection” value [1] was 59 (7.2) n (%) and the “PASI 75 response rate” value [2, 4] was 85%. The “PASI 90 response rate” value [2, 4] was 84%, the “PASI 100 response rate” value [2, 4] was 87% and the “PASI 75 response rate” value [2, 5] was 59%. For the same substance, the “PASI 90 response rate” value [2, 5] was 60%, the “PASI 100 response rate” value [2, 5] was 63% and the “PASI 75 response rate” value [2, 6] was 35%. The “PASI 90 response rate” value [2, 6] was 33%, the “PASI 100 response rate” value [2, 6] was 34% and the “PASI 75 response rate” value [2, 7] was 85%. For the same substance, the “PASI 90 response rate” value [2, 7] was 59%, the “PASI 100 response rate” value [2, 7] was 35% and the “PASI 75 response rate” value [2, 8] was 87%. For the same substance, the “PASI 90 response rate” value [2, 8] was 63%, the “PASI 100 response rate” value [2, 8] was 34% and the “PASI 75 response rate” value ([2]; re-randomized to adalimumab at Wk 33, did not lose adequate response, after 24 weeks in OLE) was 83%. The “PASI 75 response rate” value ([2]; re-randomized to adalimumab at Wk 33, lost adequate response, after 24 weeks in OLE) was 55%, the “PASI 75 response rate” value ([2]; re-randomized to placebo at Wk 33, did not lose adequate response, Wk 24 of OLE adalimumab) was 84% and the “PASI 75 response rate” value ([2]; re-randomized to placebo at Wk 33, lost adequate response, Wk 24 of OLE adalimumab) was 55%. The “cases of tuberculosis, demyelinating disorder, lupus-like syndrome, lymphoma, or congestive heart failure” value ([3]; 120-week period) was “No cases”, the “AEs leading to withdrawal, patients” value ([3]; Week 0-24 (n = 92)) was 4 (4.3) n (%) and the “Any AE, patients” value ([3]; Week 0-24 (n = 92)) was 69 (75.0) n (%). The Diarrhea ([3]; Week 0-24 (n = 92)) was 5 (5.4) n (%), the Headache ([3]; Week 0-24 (n = 92)) was 7 (7.6) n (%) and the “Infectious AEs, patients” value ([3]; Week 0-24 (n = 92)) was 28 (30.4) n (%). The “Malignant AEs, patients” value ([3]; Week 0-24 (n = 92)) was 1 (1.1) n (%), the Nasopharyngitis ([3]; Week 0-24 (n = 92)) was 9 (9.8) n (%) and the “Serious AEs, patients” value ([3]; Week 0-24 (n = 92)) was 2 (2.2) n (%). The Sinusitis ([3]; Week 0-24 (n = 92)) was 1 (1.1) n (%), the Hypercholesterolemia ([3]; Week 0-24 (n = 92)) was 4 (4.3) n (%) and the Increased triglycerides ([3]; Week 0-24 (n = 92)) was 7 (7.6) n (%). The “AEs leading to withdrawal, patients” value ([3]; Week 25-48 (n = 78)) was 0 (0.0) n (%), the “Any AE, patients” value ([3]; Week 25-48 (n = 78)) was 33 (42.3) n (%) and the Diarrhea ([3]; Week 25-48 (n = 78)) was 1 (1.3) n (%). For the same substance, the Headache ([3]; Week 25-48 (n = 78)) was 0 (0.0) n (%), the “Malignant AEs, patients” value ([3]; Week 25-48 (n = 78)) was 0 (0.0) n (%) and the Nasopharyngitis ([3]; Week 25-48 (n = 78)) was 5 (6.4) n (%). For the same substance, the “Serious AEs, patients” value ([3]; Week 25-48 (n = 78)) was 0 (0.0) n (%), the Sinusitis ([3]; Week 25-48 (n = 78)) was 1 (1.3) n (%) and the Hypercholesterolemia ([3]; Week 25-48 (n = 78)) was 0 (0.0) n (%). The Increased triglycerides ([3]; Week 25-48 (n = 78)) was 1 (1.3) n (%), the “AEs leading to withdrawal, patients” value ([3]; Week 49-72 (n = 62)) was 0 (0.0) n (%) and the “Any AE, patients” value ([3]; Week 49-72 (n = 62)) was 28 (45.2) n (%). For the same substance, the Diarrhea ([3]; Week 49-72 (n = 62)) was 1 (1.6) n (%), the Headache ([3]; Week 49-72 (n = 62)) was 0 (0.0) n (%) and the “Malignant AEs, patients” value ([3]; Week 49-72 (n = 62)) was 0 (0.0) n (%). For the same substance, the Nasopharyngitis ([3]; Week 49-72 (n = 62)) was 1 (1.6) n (%), the “Serious AEs, patients” value ([3]; Week 49-72 (n = 62)) was 0 (0.0) n (%) and the Sinusitis ([3]; Week 49-72 (n = 62)) was 1 (1.6) n (%). The Hypercholesterolemia ([3]; Week 49-72 (n = 62)) was 1 (1.6) n (%), the Increased triglycerides ([3]; Week 49-72 (n = 62)) was 1 (1.6) n (%) and the “AEs leading to withdrawal, patients” value ([3]; Week 73-96 (n = 55)) was 0 (0.0) n (%). For the same substance, the “Any AE, patients” value ([3]; Week 73-96 (n = 55)) was 27 (49.1) n (%), the Diarrhea ([3]; Week 73-96 (n = 55)) was 0 (0.0) n (%) and the Headache ([3]; Week 73-96 (n = 55)) was 0 (0.0) n (%). For the same substance, the “Malignant AEs, patients” value ([3]; Week 73-96 (n = 55)) was 0 (0.0) n (%), the Nasopharyngitis ([3]; Week 73-96 (n = 55)) was 3 (5.5) n (%) and the “Serious AEs, patients” value ([3]; Week 73-96 (n = 55)) was 0 (0.0) n (%). For the same substance, the Sinusitis ([3]; Week 73-96 (n = 55)) was 3 (5.5) n (%), the Hypercholesterolemia ([3]; Week 73-96 (n = 55)) was 3 (5.5) n (%) and the Increased triglycerides ([3]; Week 73-96 (n = 55)) was 1 (1.8) n (%). For the same substance, the “AEs leading to withdrawal, patients” value ([3]; Week 97-120 (n = 53)) was 0 (0.0) n (%), the “Any AE, patients” value ([3]; Week 97-120 (n = 53)) was 25 (47.2) n (%) and the Diarrhea ([3]; Week 97-120 (n = 53)) was 3 (5.7) n (%). For the same substance, the Headache ([3]; Week 97-120 (n = 53)) was 0 (0.0) n (%), the “Malignant AEs, patients” value ([3]; Week 97-120 (n = 53)) was 0 (0.0) n (%) and the Nasopharyngitis ([3]; Week 97-120 (n = 53)) was 2 (3.8) n (%). For the same substance, the “Serious AEs, patients” value ([3]; Week 97-120 (n = 53)) was 1 (1.9) n (%), the Sinusitis ([3]; Week 97-120 (n = 53)) was 1 (1-9) n (%) and the Hypercholesterolemia ([3]; Week 97-120 (n = 53)) was 1 (1.9) n (%). For the same substance, the Increased triglycerides ([3]; Week 97-120 (n = 53)) was 0 (0.0) n (%).
